Entries after “also recorded” stand apart in the source; their conditions may differ. Where two headings read alike, the source gives them in different places.
Legend:
Kuramochi-mCh-NLS cells = test: Co-culture of chimeric Tim receptor T cells with Niraparib-treated Kuramochi cells (IncuCyte); assay type: cell-based, human
Experimental: Kuramochi cells expressing a mCherry-NLS plasmid were incubated for 20 hours with 25, 12.5, or 6.25 μM Niraparib. The next day the Niraparib concentration was reduced to 0.52 μM and co-cultures of primary human CD4+ and CD8+ T cells expressing chimeric Tim receptor construct 13A (TIM4 binding domain-CD28 transmembrane domain—CD28 costimulatory domain-CD3ζ signaling domain) (SEQ ID NO 162) were added to the Kuramochi culture. […] The number of Kuramochi cells expressing mCherry-NLS was monitored via IncuCyte.
Kuramochi cells expressing a mCherry-NLS plasmid were incubated for ˜20 hours with 1.56 μM Niraparib. The next day, media were removed from cells and replaced with fresh media with 0 μM Niraparib, and primary human CD4+ and CD8+ T cells expressing chimeric Tim receptor CTX140 (Tim4 binding domain-CD28 hinge-CD28 transmembrane-CD28 costimulatory domain-DAP12)(SEQ ID NO: 195) or CTX156 (tEGFR control) were added to the Kuramochi culture. The number of Kuramochi cells expressing mCherry-NLS was monitored via IncuCyte.
21500 Kuramochi ovarian cancer cells expressing an mCherry-NLS plasmid were plated on day 0.25, 12.5, or 6.25 μM Niraparib were added to cell culture ˜4 hours later. ˜20 hours after initial Niraparib dose, primary human CD4+ and CD8+ T cells expressing chimeric Tim receptor CTX137 (Tim4 binding domain-CD28 transmembrane-CD28 costimulatory domain-DAP12) (SEQ ID NO: 197) or CTX156 (tEGFR control) and maintenance dose of 0.52 μM Niraparib were added.
T cell transduction and culturing: CD4 and CD8 T cells were isolated from frozen healthy donor PBMCs using Miltenyi CD4+ and CD8+ isolation kits. CD4 and CD8 T cells were then mixed in a 1:1 ratio and incubated overnight in a flat bottom 24 well plate in OpTmizer medium supplemented with cell serum replacement, IL-Glutamine, GlutaMAX, and IL-2, IL-7, and IL-15 cytokines, and TransAct diluted 1:50. […] T cells were counted and supplemented with fresh medium approximately every two days thereafter. […]

[1] = low phosphatidylserine density, cited from earlier work

B1: CTX137: Tim4 binding domain-CD28 transmembrane-CD28 costimulatory domain-DAP12, SEQ ID NO: 197 (protein)
chain: MSKEPLILWLMIEFWWLYLTPVTSETVVTEVLGHRVTLPCLYSSWSHNSNSMCWGKDQCPYSGCKEALIRTDGMRVTSRKSAKYRLQGTIPRGDVSLTILNPSESDSGVYCCRIEVPGWFNDVKINVRLNLQRASTTTHRTATTTTRRTTTTSPTTTRQMTTTPAALPTTVVTTPDLTTGTPLQMTTIAVFTTANTCLSLTPSTLPEEATGLLTPEPSKEGPILTAESETVLPSDSWSSVESTSADTVLLTSKESKVWDLPSTSHVSMWKTSDSVSSPQPGASDTAVPEQNKTTKTGQMDGIPMSMKNEMPISQFWVLVVVGGVLACYSLLVTVAFIIFWVRSKRSRLLHSDYMNMTPRRPGPTRKHYQPYAPPRDFAAYRSYFLGRLVPRGRGAAEAATRKQRITETESPYQELQGQRSDVYSDLNTQRPYYK
modifications: Tim4 binding domain-CD28 transmembrane-CD28 costimulatory signaling domain-DAP12 signaling domain, amino acids 1-24 are signal peptide (CTX137)
- Kuramochi cell numbers (Kuramochi-mCh-NLS cells; Niraparib 25 μM pre-incubation + 0.52 μM maintenance, control CTX156, FIG. 6): reduces Kuramochi cell numbers
- number of Kuramochi cells in culture vs mock transduction control (Kuramochi-mCh-NLS cells; Niraparib 25, 12.5 or 6.25 μM pre-treatment ~20 h, then 0.52 μM, CD4+/CD8+ T cells, FIG. 4, FIG. 7): reduces Kuramochi cell numbers; also recorded: significantly reduce the number of Kuramochi cells

B2: CTX140: Tim4 binding domain-CD28 hinge-CD28 transmembrane-CD28 costimulatory domain-DAP12, SEQ ID NO: 195 (protein)
chain: MSKEPLILWLMIEFWWLYLTPVTSETVVTEVLGHRVTLPCLYSSWSHNSNSMCWGKDQCPYSGCKEALIRTDGMRVTSRKSAKYRLQGTIPRGDVSLTILNPSESDSGVYCCRIEVPGWFNDVKINVRLNLQRASTTTHRTATTTTRRTTTTSPTTTRQMTTTPAALPTTVVTTPDLTTGTPLQMTTIAVFTTANTCLSLTPSTLPEEATGLLTPEPSKEGPILTAESETVLPSDSWSSVESTSADTVLLTSKESKVWDLPSTSHVSMWKTSDSVSSPQPGASDTAVPEQNKTTKTGQMDGIPMSMKNEMPISQIEVMYPPPYLDNEKSNGTIIHVKGKHLCPSPLFPGPSKPFWVLVVVGGVLACYSLLVTVAFIIFWVRSKRSRLLHSDYMNMTPRRPGPTRKHYQPYAPPRDFAAYRSYFLGRLVPRGRGAAEAATRKQRITETESPYQELQGQRSDVYSDLNTQRPYYK
modifications: Tim4 binding domain-CD28 hinge-CD28 transmembrane-CD28 costimulatory signaling domain-DAP12 signaling domain, amino acids 1-24 are signal peptide(CTX140)
- number of Kuramochi cells in culture vs mock transduction control (Kuramochi-mCh-NLS cells; Niraparib 1.56 μM pre-incubation ~20 h, then 0 μM, control CTX156, FIG. 5): reduces Kuramochi cell numbers; also recorded: significantly reduce the number of Kuramochi cells

B3: Tim-4: phosphatidylserine receptor typically expressed on antigen presenting cells (protein, UniProt Q96H15 25-378, looked up)
T-cell immunoglobulin and …: ETVVTEVLGHRVTLPCLYSSWSHNSNSMCWGKDQCPYSGCKEALIRTDGMRVTSRKSAKYRLQGTIPRGDVSLTILNPSESDSGVYCCRIEVPGWFNDVKINVRLNLQRASTTTHRTATTTTRRTTTTSPTTTRQMTTTPAALPTTVVTTPDLTTGTPLQMTTIAVFTTANTCLSLTPSTLPEEATGLLTPEPSKEGPILTAESETVLPSDSWSSVESTSADTVLLTSKESKVWDLPSTSHVSMWKTSDSVSSPQPGASDTAVPEQNKTTKTGQMDGIPMSMKNEMPISQLLMIIAPSLGFVLFALFVAFLLRGKLMETYCSQKHTRLDYIGDSKNVLNDVQHGREDEDGLFTL
- binding at Low PtdSer [1]: Minimal
- binding at Low PtdSer ([1]; listed as Tim4 binding domain): binds minimally

From patent US20250186491A1, “COMPOSITIONS AND METHODS FOR TREATING CANCER WITH CHIMERIC TIM RECEPTORS IN COMBINATION WITH INHIBITORS OF POLY (ADP-RIBOSE) POLYMERASE” (CERO THERAPEUTICS HOLDINGS, INC., priority 2020, published 2025)
